Our source for the Kd values is article PMC12582157.

The target in series [1] is T1, β-conglutin (Lupinus albus (white lupin)?) (UniProt Q53HY0).
T1 sequence: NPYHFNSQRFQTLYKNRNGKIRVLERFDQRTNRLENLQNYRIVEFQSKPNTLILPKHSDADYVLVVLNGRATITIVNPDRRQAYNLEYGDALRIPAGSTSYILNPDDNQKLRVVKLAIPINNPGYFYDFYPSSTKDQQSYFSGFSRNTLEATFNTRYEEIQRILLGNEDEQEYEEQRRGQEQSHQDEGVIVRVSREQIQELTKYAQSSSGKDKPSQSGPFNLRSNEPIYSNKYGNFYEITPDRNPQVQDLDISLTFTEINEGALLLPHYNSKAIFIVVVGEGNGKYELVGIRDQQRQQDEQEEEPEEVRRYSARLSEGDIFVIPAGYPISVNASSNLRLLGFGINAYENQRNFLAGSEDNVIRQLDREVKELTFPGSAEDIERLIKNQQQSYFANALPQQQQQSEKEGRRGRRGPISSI
Description: ELAA. The settings on record: Binding buffer, salt, pH and temperature not given in the material.

Series [2] addresses T1, β-conglutin (Lupinus albus (white lupin)?). Description: BLI. The note with it: 1:1 model, Binding buffer, salt.
The target is the same in series [3]. Description: MST. The settings on record: Binding buffer, salt, pH and temperature not given in the material.
Series [4] has the same target. Briefly: SPR. The note with it: dA outside the 5' primer region (nt 24-94) replaced by indole-modified dA (dAEIn); Binding buffer, salt, pH and temperature not given in the material.
Setting [5] is: dA outside the 5' primer region (nt 24-94) replaced by indole-modified dA (dAEIn).
[6] abbreviates: all dA = dAEIn, 5' dC carries Cy5.

As a reminder, the Kd is the equilibrium constant for the complex coming apart.

Consider “AGCTCCAGAAGATAAATTACAGGCAAGATCACCGTAGACGCGTCGAGAAGTGTGAGATCCTATGAAATGACCGCAACTAGGATACTATGACCCC [HB7]”, for which, in series [1] (dA outside 5' primer = dAEIn), the Kd turned out to be 1.1 nM. Consider “AGCTCCAGAAGATAAATTACAGGCCAAGATCTCGCGAGTTCCCAACAGGGCAGAGAGATGCCCGACACCAGTG [HB8_T1]”, for which the Kd in series [2] (dA in nt 24-73 = dAEIn, pH and temperature not given in the material) was 0.6 nM; in series [3] (dA in nt 24-73 = dAEIn), 42 nM.

As for “AGCTCCAGAAGATAAATTACAGGCCAAGATCTCGCGAGTTCCCAACAGGGCAGAGAGATGCCCGACACCAGTGCAACTAGGATACTATGACCCC [HB8]”, the Kd is 0.9 nM in series [2] (dA outside the 5' primer region (nt 24-94) replaced by indole-modified dA (dAEIn), pH and temperature not given in the …); 41 nM in series [3] (setting [5]); 92 nM in series [4]; 0.6 nM in series [1] (setting [5]). On to “AGCTCCAGAAGATAAATTACAGGCCAAGATCTCGCGAGTTCCCAACAGGGCAGAGAGATGCCCGACACCAGTGCAACTAGGATACTATGACCCC [HB8_M1]”, for which the Kd in series [3] (dAEIn as in HB8 except three central positions following the primer, which are natural dA) worked out at 134 nM. As for “AGCTCCAGAAGATAAATTACAGGCCAAGATCTCGCGAGTTCCCAACAGGGCAGAGAGATGCCCGACACCAGTGCAACTAGGATACTATGACCCC [HB8_M2]”, the Kd in series [3] (dAEIn in nt 24-73, 3' 21 nt with natural dA) turned out to be 44 nM. Turning to “CCAAGATCTCGCGAGTTCCCAACAGGGCAGAGAGATGCCCGACACCAGTG [HB8_T3]”, in series [3] (setting [6]), the Kd came to 145 nM.

As for “CCAAGATCTCGCGAGTTCCCAACAGGGCAGAGAGATGCCCGACACCAGTGCAACTAGGATACTATGACCCC [HB8_T2]”, in series [3] (setting [6]), the Kd stood at 256 nM.

Consider “GATAAATTACAGGCCAAGATCTCGCGAGTTCCCAACAGGGCAGAGAGATGCCCGACACCAGTGCAACTAGGATACTATGACCCC [HB8_T4]”, for which, in series [3] (dA after the 13 nt primer remainder = dAEIn), the Kd was found to be 24 nM.
